The values below come from patent publication US20140370563A1, “COMPOSITIONS AND METHODS FOR THE RELIEF OF INHIBITION OF ALDEHYDE DECARBONYLASE” (priority 2011, published 2014).

Entries after “also recorded” stand apart in the source; their conditions may differ.

The target of data set [1] is T1, aldehyde decarbonylase (ADC) (Prochlorococcus marinus, UniProt Q7V6D4).
T1 construct: made in house; host or cells: E. coli BL21 (DE3) Gold
T1 sequence (Q7V6D4 1-243): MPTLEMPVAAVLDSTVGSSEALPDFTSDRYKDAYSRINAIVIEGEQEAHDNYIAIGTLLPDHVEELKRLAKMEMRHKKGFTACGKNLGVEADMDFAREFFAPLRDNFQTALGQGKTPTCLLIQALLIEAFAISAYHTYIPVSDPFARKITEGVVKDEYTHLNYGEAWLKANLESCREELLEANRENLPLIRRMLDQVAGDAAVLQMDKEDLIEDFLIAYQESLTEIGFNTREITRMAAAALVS
As to the kind of experiment: decarbonylase assay (octadecanal to alkane, GC/MS). The data set is classed as biochemical. How it is done: (§1) Typical decarbonylase assays were 0.25 mL and contained 25 mM Tris-Cl pH 7.5, 0.1% Triton X-100, 1 mM DTT, 50 μg/mL maize root ferredoxin and 1 U/mL anabaena vegetative ferredoxin reductase (Cahoon et al. 1997, PNAS 94:4872-4877.), 2 mM NADPH, 200 μM octadecanal, and between 0.2-5 μM ADC or CAT-ADC. A 20 mM octadecanal stock was freshly prepared by sonicating powder in 10% Triton X-100. Octadecanal was obtained from ISCA technologies. When indicated catalase (Sigma C-9322) was added to a final concentration of 4 mg/mL from a 20 mg/mL stock dissolved in 100 mM PIPES pH 6.0. For assays performed in 100% oxygen a reaction master mix without NADPH and a separate NADPH solution were prepared by repeated purging of the sample cell with 100% O2 and vacuum with the use of a Schlenk line. Reactions were initialed by addition of either enzyme, substrate, or NADPH and were incubated at 37° C. and stopped by the addition of an equal volume of ethyl acetate. The organic phase was separated by GC/MS on an HP-5 ms column with oven temperature increasing from 75° C. to 320° C. at 40° C./min with a flow rate of 1.3 ml/min. Substrate and product were identified by comparison to authentic standards.

Substrate in data set [2]: CCCCCCCCCCCC=O
As to the kind of experiment: Decarbonylase assay: kinetics of aldehyde decarbonylase activity with aldehyde substrates of different lengths (FIG. 8); recombinant ADC, GenBank CAE21406.1, with N-terminal MGSDKIHHHHHHENLYFQG tag, expressed in E. coli BL21 (DE3) Gold; no mutations stated. The note with it: other: aldehyde as substrate, typical assay 25 mM Tris-Cl pH 7.5, 0.1% Triton X-100, ferredoxin, ferredoxin reductase, 2 mM NADPH, 37° C., GC/MS. The data set is classed as biochemical, Prochlorococcus marinus.
Description: (§2) A catalase transcriptional fusion was produced as described below. […] The Catalase used was Ec catalase (GenBank Accession No. U00092.2) though the present invention is not limited to the use of this particular catalase. The ADC used was Pm ADC (GenBank Accession No. CAE21406.1). The ADC contains a diiron site. ADCs utilizing other metals are also suitable for use. For example, ribonucleotide reductase, which is normally a diiron protein can also use Mn (manganese) (Metallomics, 2011, 3(2):110-120, ePub […] Jan. 25). The catalase and ADC sequences were connected by a 20 amino acid linker: […] [SEQ ID NO: 8]. A 6×His-tag was added to the 3′ end for simplified purification. The recombinant catalase-ADC fusion (hybrid) protein (CAT-ADC or CA) was produced using the T7 expression system in E. coli and was purified using Ni-NTA agarose resin.
(§3) The pSpeedET T7 inducible bacterial expression plasmid containing the coding sequence for Prochlorococcus marinus aldehyde decarbonylase (ADC, GenBank: CAE21406.1 [SEQ ID NO: 1]) fused with an N-terminal MGSDKIHHHHHHENLYFQG [SEQ ID NO: 2] tag as constructed by the Joint Center for Structural Genomics, was obtained from the DNASU plasmid repository. The E. coli catalase (katE GenBank: U00096.2 [SEQ ID NO: 3]) ADC fusion protein (CAT-ADC) was constructed by overlap extension PCR. Primers for catalase were: forward—[…] [SEQ ID NO: 4] and reverse—[…] TTTGTCAATCTTAGG [SEQ ID NO: 5]. Primers for ADC were: forward—[…] TTGAGATGCCT [SEQ ID NO: 6] and reverse—[…] [SEQ ID NO: 7]. The final construct contained catalase followed by a 20 amino acid flexible linker domain ([…] [SEQ ID NO: 8]) (Martin et al 2005, Nature 473:1115-1120.) followed by ADC and finally a C-terminal hexahistidine tag and was cloned into the NdeI and XhoI sites of pET24b.
(§4) E. coli BL21 (DE3) Gold cells containing various plasmids were grown at 37° C. to an OD600 of 0.4, were induced with 0.4 mM IPTG, and were grown for an additional 4 hours at 37° C. for ADC or 30° C. for CAT-ADC. Cell pellets were suspended in 20 mM Tris-Cl pH 7.5, 150 mM NaCl, 20 mM imidazole, 5 mM MgCl2, and 0.1 mg/mL DNase and were lysed using a French pressure cell. Cellular debris was removed by centrifugation at 40,000×g for 20 min. Recombinant proteins were purified from the soluble fraction with Ni-NTA resin (Qiagen). Wash and elution buffers were 20 mM Tris-Cl pH 7.5, 300 mM NaCl, and 25 or 250 mM imidazole, respectively. Eluted proteins were immediately exchanged into 20 mM HEPES pH 7.8, 200 mM NaCl using PD-10 desalting columns. Protein concentration was determined with Bradford Assay (Sigma).
as §1

Substrate in data set [3]: CCCCCCCCCCCCCCCCCC=O
Described as above. The data set is classed as biochemical, Prochlorococcus marinus. The note with it: other: aldehyde as substrate, typical assay 25 mM Tris-Cl pH 7.5, 0.1% Triton X-100, ferredoxin, ferredoxin reductase, 2 mM NADPH, 37° C., GC/MS.
Description: as §2, §3, §4, §1

Substrate in data set [4]: CCCCCCCCCCCCCC=O
Described as above. The data set is classed as biochemical, Prochlorococcus marinus. The note with it: other: aldehyde as substrate, typical assay 25 mM Tris-Cl pH 7.5, 0.1% Triton X-100, ferredoxin, ferredoxin reductase, 2 mM NADPH, 37° C., GC/MS.
Description: as §2, §3, §4, §1

Substrate in data set [5]: CCCCCCCC/C=C\CCCCCCCC=O
Described as above. The data set is classed as biochemical, Prochlorococcus marinus. As to conditions: other: aldehyde as substrate, typical assay 25 mM Tris-Cl pH 7.5, 0.1% Triton X-100, ferredoxin, ferredoxin reductase, 2 mM NADPH, 37° C., GC/MS.
Description: as §2, §3, §4, §1

Substrate in data set [6]: CCCCCCCCCCCCCCCC=O
Described as above. The data set is classed as biochemical, Prochlorococcus marinus. As to conditions: other: aldehyde as substrate, typical assay 25 mM Tris-Cl pH 7.5, 0.1% Triton X-100, ferredoxin, ferredoxin reductase, 2 mM NADPH, 37° C., GC/MS.
Description: as §2, §3, §4, §1

Substrate in data set [7]: CCCCCCCCCC=O
The description is as above. The data set is classed as biochemical, Prochlorococcus marinus. As to conditions: other: aldehyde as substrate, typical assay 25 mM Tris-Cl pH 7.5, 0.1% Triton X-100, ferredoxin, ferredoxin reductase, 2 mM NADPH, 37° C., GC/MS.
Description: as §2, §3, §4, §1

Substrate in data set [8]: CCCCCCCC=O
The description is as above. The data set is classed as biochemical, Prochlorococcus marinus. The note with it: other: aldehyde as substrate, typical assay 25 mM Tris-Cl pH 7.5, 0.1% Triton X-100, ferredoxin, ferredoxin reductase, 2 mM NADPH, 37° C., GC/MS.
Description: as §2, §3, §4, §1

The target of data set [9] is T1, aldehyde decarbonylase (ADC). The note with it: in the absence of catalase; Warui et al. 2011; cited from earlier work.

For the molecule `OO` [H2O2, hydrogen peroxide, reference compound], the “inhibition of ADC by H2O2 in low oxygen atmosphere” value in data set [1] (4% (50 μM) atmosphere) is listed as “enhanced”. The “inhibition of ADC by H2O2 in oxygen atmosphere” value in data set [1] (100% O2 (1250 μM) atmosphere, FIG. 2) is recorded as “lessened”. In addition, in data set [1] (H2O2 added to decarbonylase assays, FIG. 1A / FIG. 2), the “inhibition of ADC activity by H2O2” value is “selectively inhibited; also recorded: increasing inhibition”.

B1: catalase: catalase enzyme (Sigma C-9322) added at 4 mg/mL; converts hydrogen peroxide to water and oxygen (protein, UniProt P00432 2-527, looked up)
Catalase: ADNRDPASDQMKHWKEQRAAQKPDVLTTGGGNPVGDKLNSLTVGPRGPLLVQDVVFTDEMAHFDRERIPERVVHAKGAGAFGYFEVTHDITRYSKAKVFEHIGKRTPIAVRFSTVAGESGSADTVRDPRGFAVKFYTEDGNWDLVGNNTPIFFIRDALLFPSFIHSQKRNPQTHLKDPDMVWDFWSLRPESLHQVSFLFSDRGIPDGHRHMNGYGSHTFKLVNANGEAVYCKFHYKTDQGIKNLSVEDAARLAHEDPDYGLRDLFNAIATGNYPSWTLYIQVMTFSEAEIFPFNPFDLTKVWPHGDYPLIPVGKLVLNRNPVNYFAEVEQLAFDPSNMPPGIEPSPDKMLQGRLFAYPDTHRHRLGPNYLQIPVNCPYRARVANYQRDGPMCMMDNQGGAPNYYPNSFSAPEHQPSALEHRTHFSGDVQRFNSANDDNVTQVRTFYLKVLNEEQRKRLCENIAGHLKDAQLFIQKKAVKNFSDVHPEYGSRIQALLDKYNEEKPKNAVHTYVQHGSHLSAREKANL
As to B1, the “relief of inhibition by catalase in all electron transport systems studied” value in data set [1] (Maize FNR/anabaena Fd, Spinach FNR/ferredoxin, PMS/NADH, FIG. 10) is “relieves the inhibition”. Besides, the “relief of H2O2 inhibition of ADC by added catalase” value in [1] (catalase added, 0, 1 or 10 mM H2O2 (FIG. 3), FIG. 1B) is recorded as “restoration of ADC activity; also recorded: effective in overcoming the H2O2 induced inhibition of ADC”. For the same molecule, in [1] (excess aldehyde substrate, NADPH, ferredoxin NADPH reductase and ferredoxin, 16 hrs (FIG. 9)), the “turnovers of the ADC reaction in the presence of catalase” value is “greater than 150 turnovers”.

B2: aldehyde decarbonylase (ADC) (Prochlorococcus marinus str. MIT 9313) (protein)
chain: T1 sequence (Q7V6D4 1-243)
notes: … (His6 tag) (N); made in house; host or cells: E. coli BL21 (DE3) Gold
What is called Km is the concentration of substrate that gives half-maximal velocity. Consider B2, for which the Km in data set [2] is listed as 45.3 ± 18.5 µM; in data set [3] it was 41.3 ± 4.8 µM; in data set [4], 18.9 ± 1.7 µM; in data set [5] it was 44.4 ± 7.2 µM; in data set [6] it was 30.1 ± 4.2 µM; in [7] it was 29.5 ± 6.2 µM. Further, the Michaelis constant (Km) in data set [8] amounted to 27.7 ± 9.9 µM.

B3: ADC: Prochlorococcus marinus aldehyde decarbonylase, GenBank CAE21406.1, N-terminal His tag (protein, UniProt Q7V6D4 1-243, looked up)
Aldehyde decarbonylase: T1 sequence (Q7V6D4 1-243)
modifications: N-terminal His tag
notes: Prochlorococcus marinus aldehyde decarbonylase, GenBank CAE21406.1, N-terminal His tag
For the molecule B3, the “turnovers of ADC before it becomes inactive” value in data set [9] is recorded as “approximately three”. Further, in data set [1] (200 μM substrate, 1 mM H2O2 added, FIG. 6A), the “sensitivity of decarbonylase activity to H2O2 inhibition” value was “inhibited by H2O2”. Besides, the “decarbonylase activity with or without added catalase” value in data set [1] (200 μM substrate, excess NADPH, ferredoxin, FNR, FIG. 6A) is recorded as “highest activity only when catalase was added”. In addition, in data set [1] (without catalase, FIG. 1B), the “time after which ADC activity was inhibited” value is “about 15 min” and the “turnovers until ADC activity was inhibited” value was “about 3 turnovers”.
